Where two headings read alike, the source gives them in different places.
Key:
Assay in all cases: EMSA
[1] = molecular target: T1, O6-alkylguanine-DNA alkyltransferase (AGT, MGMT) (human, UniProt P16455 1-207)
[2] = molecular target: T1, O6-alkylguanine-DNA alkyltransferase …; remark: listed apart in the source
[3] = molecular target: T1, O6-alkylguanine-DNA alkyltransferase …; remark: listed apart in the source

T1 sequence (P16455 whole entry): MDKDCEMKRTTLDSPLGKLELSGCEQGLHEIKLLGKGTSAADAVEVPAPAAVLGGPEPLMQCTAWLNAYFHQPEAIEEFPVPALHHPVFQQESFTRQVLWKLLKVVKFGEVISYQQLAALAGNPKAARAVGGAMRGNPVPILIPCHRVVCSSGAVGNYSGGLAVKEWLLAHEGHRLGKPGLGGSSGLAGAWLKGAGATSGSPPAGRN

B1: duplex 16mer (A/B) (dsDNA)
DNA 1: GACTGACTGACTGACT
DNA 2: AGTCAGTCAGTCAGTC
[1]
  Ka: 2.58e+06 M⁻¹
[2]
  Ka: 16900 M⁻¹
[3]
  Ka: 3.97 ± 0.02 log10 M-1
